Data published in patent publication US20180105595A1.

Legend:
[1] = biological target: 2D8 scFv (anti-WTE)-CD8 hinge region-CD28a-CD28b-CD137-CD3ζ chimeric antigen receptor on T lymphocytes (human) (UniProt P01732); test: cell-based or functional assay
human EGFRvIII (human) = human EGFRvIII (human) (UniProt P00533); test: cell-based or functional assay

Sequence of UniProt P01732 (P01732 other isoform, or with tags, fused parts or gaps mutant limits assumed): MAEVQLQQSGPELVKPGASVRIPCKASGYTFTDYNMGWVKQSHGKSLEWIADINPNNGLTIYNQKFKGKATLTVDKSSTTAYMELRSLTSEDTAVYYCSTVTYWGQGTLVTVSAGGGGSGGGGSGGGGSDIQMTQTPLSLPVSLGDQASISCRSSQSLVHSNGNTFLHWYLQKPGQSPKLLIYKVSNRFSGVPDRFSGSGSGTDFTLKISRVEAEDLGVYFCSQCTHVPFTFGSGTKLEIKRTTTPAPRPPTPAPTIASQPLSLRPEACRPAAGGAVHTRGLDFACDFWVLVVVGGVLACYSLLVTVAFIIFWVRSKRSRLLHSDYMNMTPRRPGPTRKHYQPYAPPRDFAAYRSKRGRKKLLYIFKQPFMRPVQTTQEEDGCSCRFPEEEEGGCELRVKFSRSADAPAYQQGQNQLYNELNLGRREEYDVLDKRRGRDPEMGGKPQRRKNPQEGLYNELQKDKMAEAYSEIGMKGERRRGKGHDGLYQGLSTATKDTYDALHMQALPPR

Question: What does the source list for “WTE polypeptide (free) (from UniProt P00533 1189-1210)”?
Answer: reduction of WTE-CH12-mediated cytotoxicity of CAR+ T cells on U87MG-EGFRvIII, free WTE polypeptide at 2-fold molar concentration of WTE-CH12, against Experimental group 1 [1]: 31.1%; reduction of WTE-CH12-mediated cytotoxicity of CAR+ T cells on U87MG-EGFRvIII, free WTE polypeptide at 20-fold molar concentration of WTE-CH12, against Experimental group 1 [1]: 87.8%

B1: anti-human EGFRvIII WTE-CH12 antibody (antibody, V domains shown)
VH: DVQLQESGPGLVKPSQSLSLTCTVTAYSVTSDYAWNWIRQFPGNKLEWMGYISYSGTTRYNPSLKSRISITRDTSKNQFFLQLNSMTAEDTATYYCSRQGRGFPYWGQGTLVTVSA
VL: DILMTQSPSSMSVSLGDTVSITCHASQDINSNIGWLQQKPGKSFKGLIYHGTNLEDGVPSRFSGSGSGADYSLTISSLESEDFADYYCVQYAQFPWTFGGGTKLEIKR
Question: For B1, which cytotoxicity % (LDH release) of anti-WTE CAR+ T cells on Huh-7-EGFRvIII cells at 10^4 ng/ml WTE-CH12, effector:target 3:1 (human EGFRvIII (human)) is on record?
Answer: 93%

Question: And the cytotoxicity % (LDH release) of anti-WTE CAR+ T cells on U87MG-EGFRvIII cells at 10^4 ng/ml WTE-CH12, effector:target 10:1 (human EGFRvIII (human))?
Answer: 98.3%
